In the case of thrombin, the “clotting activity by ROTEM in human hemophilia A blood” value (FVII-184) is reported as “Inactivating the thrombin cleavage site of FVII133 considerably reduced the activity; as the activity of FVII-184, which only became detectable at 50 nM, was much lower than that of FVIIa”, the “amidolytic activity (chromozyme t-PA substrate) before and after thrombin activation” value (FVII-133) is reported as “FVII-212 displayed no activity prior to thrombin activation. Following thrombin activation, the amidolytic activity associated with FVII-212 was greater than that observed for equal molar levels of rFVIIa” and the “cleavage by 1.4 nM thrombin (HPLC)” value (Compound 5) is reported as “Compound 1 was a better substrate for thrombin than Compounds 4 and 5”. For the same substance, the “cleavage rate with 14 nM thrombin (HPLC, decrease of peptide peak area)” value (Compound 1) was “at least 10-fold increase in cleavage rate compared to that of Compound 2”, the “fraction cleaved and released with 1.4 nM thrombin (HPLC)” value (Compound 1) was 30% of Compound 1 was quickly cleaved and released and the “cleavage by 1.4 nM thrombin (HPLC)” value (Compound 4) was “Compound 1 was a better substrate for thrombin than Compounds 4 and 5”. The “release of peptide IVGGQE with 1.4 nM thrombin (HPLC)” value (Compound 6) was “thrombin-mediated release of peptide IVGGQE from Compound 6 without PABC linker was not observed”.

From patent US20150353911
